Results from patent US20140057857A1.

Columns and labels:
GST-Mcl-1 [1] = experiment: fluorescence polarization assay, labeled peptide on GST-Mcl-1
GST-Bcl-xL = experiment: fluorescence polarization assay, labeled peptide on GST-Bcl-xL
GST-Mcl-1 [2] = experiment: competitive FP assay on Mcl-1

Bak (fluorescein-labeled Bak peptide)
Kd (GST-Mcl-1 [1]): 127 nM | Kd (GST-Bcl-xL): 14 nM

Bim (fluorescein-labeled Bim peptide)
Kd (GST-Mcl-1 [1]): 2.5 nM | Kd (GST-Bcl-xL): 1.4 nM

Ubiquitin-Noxa fusion protein
IC50 (GST-Mcl-1 [2]): 160 nM
